In US20240352121A1 (NEXTCURE, published 2024):

Key:
[1] = target: human LAIR-1 fused to the zeta chain of CD3, on UT-140 reporter cells (human, UniProt P20963 31-164); test: cell-based or functional assay
[2] = target: T1, LAIR-1 (human; form used for the KD not stated) (human, UniProt Q6GTX8 22-165, limits assumed); test: method not stated (in vitro activity listed in the legend of FIG. 20)
T1 construct: also called Leukocyte Associated Immunoglobulin Like Receptor 1
T1 chain: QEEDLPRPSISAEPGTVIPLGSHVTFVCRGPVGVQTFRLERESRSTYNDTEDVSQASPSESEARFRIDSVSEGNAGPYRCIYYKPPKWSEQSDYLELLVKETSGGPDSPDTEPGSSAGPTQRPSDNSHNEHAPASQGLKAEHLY

[3] = target: T2, human LAIR-1 expressed on cells (293T cells overexpressing human LAIR-1; leukemic cells) (human, UniProt Q6GTX8 22-287); test: cell binding, human LAIR-1 cells (FIG. 20A)
T2 construct: also called human LAIR-1 cells
T2 chain: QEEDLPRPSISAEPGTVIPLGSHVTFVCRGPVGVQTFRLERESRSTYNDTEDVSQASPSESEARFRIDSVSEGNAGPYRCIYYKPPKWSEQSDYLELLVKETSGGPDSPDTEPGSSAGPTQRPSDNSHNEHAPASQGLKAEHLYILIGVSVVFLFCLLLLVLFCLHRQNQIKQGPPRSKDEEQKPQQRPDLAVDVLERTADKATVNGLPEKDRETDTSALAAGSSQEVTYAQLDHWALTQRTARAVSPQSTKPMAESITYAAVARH

blocks signaling IC50 [1]: 0.25 nM
Kd [2]: 2.1 nM
EC50 [3]: 0.15 nM
B1: h11B3 LAIR-1 mAb, Anti-LAIR-1 Variant 6 (h11B3 VL-2 / h11B3 VH-3) (antibody, V domains shown)
VH: EVQLVESGGGLVQPGGSLKLSCAASGFTFNTNAMYWVRQAPGKGLEWVGRIRSKSSNYATYYAASVKGRFTISRDDSKNTLYLQMNSLKTEDTAVYYCVRGGSGFFAYWGQGTLVTVSS
VL: DIQMTQSPSSLSASLGDRVTITCKASEDIYIRLAWYQQKPGKAPRLLISTATSLETGVPSRFSGSGSGTDYTFTISSLQPEDIATYYCQQYWSTPYTFGGGTRLEIK
notes: In the MV4-11 staining the mAb was AF647-conjugated; also called h11B3v6; humanized 11B3 LAIR-1 mAbs
